Experimental findings from patent publication US9958461B2, “Detection of protein to protein interactions” (THE GOVERNING COUNCIL OF THE UNIVERSITY OF TORONTO, priority 2013, dated 2018) are described below.

The target in one test is T1, EGFR-L858R (Homo sapiens, UniProt P00533, L858R).
T1 construct: with the advantage of testing full-length integral membrane proteins; (GGGGS)2 linker-Cub (human ubiquitin aa 35-76)-GAL4(1-147)-mNFkB(364-550) (C); expressed in transfected cells
In words: MaMTH EGFR-interactor screen, lentiviral preys against EGFR-L858R bait (interaction score). In kind it is cell-based. Particulars: MaMTH interaction score of prey with EGFR-L858R bait. On the procedure:
(§1) After lentivirus harvest, target cells (stable 5×GAL4UAS-luciferase reporter-HEK293T cells) were infected at a multiplicity of infection (MOI) of around 0.3-0.4 to ensure single copy integration per cell. Cells were selected in puromycin for at least 48 h and transfected with either EGFR-wildtype or EGFR-L858R baits in triplicates. 24 h after transfection, cells were lysed and luciferase assays performed. On each set of interaction assays, various negative controls were included. To calculate a MaMTH-interaction scores, negative controls were averaged and the fold-change of luciferase activity compared to the averaged controls was calculated and defined as the interaction score.
(§2) Each set of experiments contains a defined set of negative controls in at least three replicates. Negative controls were chosen as such that there is a range of controls showing high-background luciferase activity (normally cytosolic proteins: Fabp5, Pex19) as well as medium-background luciferase activity (membrane-bound interactors: Pex7, GABBR2). Negative controls were averaged and the fold-change of luciferase activity was calculated. Using this method, we have a stringent cut-off and chose an interaction score >1 to be interacting proteins.
(§3) Our cut-off of 1 is based on fold-change difference in luciferase activity over averaged negative controls. Negative controls include cytosolic preys (which tend to promiscuously bind to many proteins), plasma membrane- and peroxisomal-prey proteins. In general, we chose stringent conditions by testing preys that tend to have high luciferase background with any bait tested, in order to generate high-confidence interaction data. […] Phosphorylated tyrosine residues on the receptor are typically docking sites for downstream cytoplasmic targets and recognized through SH2 or PTB domains^43.

Test [1] addresses T2, EGFR-Wt (Homo sapiens, UniProt P00533).
T2 construct: with the advantage of testing full-length integral membrane proteins; (GGGGS)2 linker-Cub (human ubiquitin aa 35-76)-GAL4(1-147)-mNFkB(364-550) (C); expressed in transfected cells
In words: MaMTH EGFR-interactor screen, lentiviral preys against EGFR-wildtype bait (interaction score). In kind it is cell-based. Particulars: MaMTH interaction score of prey with EGFR-Wt bait, mean. On the procedure: as §1, §2, §3

Test [2] concerns EGFR-Wt. Described as above. In kind it is cell-based, human. Particulars: ratio of EGFR-Wt mean to EGFR-L858R mean interaction score. On the procedure:
as §1, §2, §3

B1: CTTN (protein, UniProt Q14247 1-550, looked up)
Src substrate cortactin: MWKASAGHAVSIAQDDAGADDWETDPDFVNDVSEKEQRWGAKTVQGSGHQEHINIHKLRENVFQEHQTLKEKELETGPKASHGYGGKFGVEQDRMDKSAVGHEYQSKLSKHCSQVDSVRGFGGKFGVQMDRVDQSAVGFEYQGKTEKHASQKDYSSGFGGKYGVQADRVDKSAVGFDYQGKTEKHESQRDYSKGFGGKYGIDKDKVDKSAVGFEYQGKTEKHESQKDYVKGFGGKFGVQTDRQDKCALGWDHQEKLQLHESQKDYKTGFGGKFGVQSERQDSAAVGFDYKEKLAKHESQQDYSKGFGGKYGVQKDRMDKNASTFEDVTQVSSAYQKTVPVEAVTSKTSNIRANFENLAKEKEQEDRRKAEAERAQRMAKERQEQEEARRKLEEQARAKTQTPPVSPAPQPTEERLPSSPVYEDAASFKAELSYRGPVSGTEPEPVYSMEAADYREASSQQGLAYATEAVYESAEAPGHYPAEDSTYDEYENDLGITAVALYDYQAAGDDEISFDPDDIITNIEMIDDGWWRGVCKGRYGLFPANYVELRQ
In turn, B1 displayed an EGFR-L858R mean with EGFR-L858R of 22.11. This molecule gave an EGFR-Wt mean in the test with EGFR-Wt [1] of 33.81. For the same molecule, in the test with EGFR-Wt [2], the Wt/L858R was 1.53.

B2: RIN1 (protein, UniProt Q13671 1-783, looked up)
Ras and Rab interactor 1: MESPGESGAGSPGAPSPSSFTTGHLAREKPAQDPLYDVPNASGGQAGGPQRPGRVVSLRERLLLTRPVWLQLQANAAAALHMLRTEPPGTFLVRKSNTRQCQALCMRLPEASGPSFVSSHYILESPGGVSLEGSELMFPDLVQLICAYCHTRDILLLPLQLPRAIHHAATHKELEAISHLGIEFWSSSLNIKAQRGPAGGPVLPQLKARSPQELDQGTGAALCFFNPLFPGDLGPTKREKFKRSFKVRVSTETSSPLSPPAVPPPPVPVLPGAVPSQTERLPPCQLLRRESSVGYRVPAGSGPSLPPMPSLQEVDCGSPSSSEEEGVPGSRGSPATSPHLGRRRPLLRSMSAAFCSLLAPERQVGRAAAALMQDRHTAAGQLVQDLLTQVRAGPEPQELQGIRQALSRARAMLSAELGPEKLLSPKRLEHVLEKSLHCSVLKPLRPILAARLRRRLAADGSLGRLAEGLRLARAQGPGAFGSHLSLPSPVELEQVRQKLLQLLRTYSPSAQVKRLLQACKLLYMALRTQEGEGAGADEFLPLLSLVLAHCDLPELLLEAEYMSELLEPSLLTGEGGYYLTSLSASLALLSGLGQAHTLPLSPVQELRRSLSLWEQRRLPATHCFQHLLRVAYQDPSSGCTSKTLAVPPEASIATLNQLCATKFRVTQPNTFGLFLYKEQGYHRLPPGALAHRLPTTGYLVYRRAEWPETQGAVTEEEGSGQSEARSRGEEQGCQGDGDAGVKASPRDIREQSETTAEGGQGQAQEGPAQPGEPEAEGSRAAEE
In the test with EGFR-L858R, B2 came in with an EGFR-L858R mean of 1.84. Moreover, the EGFR-Wt mean with EGFR-Wt [1] came out at 2.19. In addition, the Wt/L858R in the test with EGFR-Wt [2] is 1.19.

B3: STAM (protein, UniProt Q92783 2-540, looked up)
Signal transducing adapter …: PLFATNPFDQDVEKATSEMNTAEDWGLILDICDKVGQSRTGPKDCLRSIMRRVNHKDPHVAMQALTLLGACVSNCGKIFHLEVCSRDFASEVSNVLNKGHPKVCEKLKALMVEWTDEFKNDPQLSLISAMIKNLKEQGVTFPAIGSQAAEQAKASPALVAKDPGTVANKKEEEDLAKAIELSLKEQRQQSTTLSTLYPSTSSLLTNHQHEGRKVRAIYDFEAAEDNELTFKAGEIITVLDDSDPNWWKGETHQGIGLFPSNFVTADLTAEPEMIKTEKKTVQFSDDVQVETIEPEPEPAFIDEDKMDQLLQMLQSTDPSDDQPDLPELLHLEAMCHQMGPLIDEKLEDIDRKHSELSELNVKVMEALSLYTKLMNEDPMYSMYAKLQNQPYYMQSSGVSGSQVYAGPPPSGAYLVAGNAQMSHLQSYSLPPEQLSSLSQAVVPPSANPALPSQQTQAAYPNTMVSSVQGNTYPSQAPVYSPPPAATAAAATADVTLYQNAGPNMPQVPNYNLTSSTLPQPGGSQQPPQPQQPYSQKALL
In the test with EGFR-L858R, B3 gave an EGFR-L858R mean of 2.49. The EGFR-Wt mean with EGFR-Wt [1] turned out to be 0.56. Further, in the test with EGFR-Wt [2], the Wt/L858R worked out at 0.23.

B4: PLCG2 (protein, UniProt P16885 1-1265, looked up)
1-phosphatidylinositol …: MSTTVNVDSLAEYEKSQIKRALELGTVMTVFSFRKSTPERRTVQVIMETRQVAWSKTADKIEGFLDIMEIKEIRPGKNSKDFERAKAVRQKEDCCFTILYGTQFVLSTLSLAADSKEDAVNWLSGLKILHQEAMNASTPTIIESWLRKQIYSVDQTRRNSISLRELKTILPLINFKVSSAKFLKDKFVEIGAHKDELSFEQFHLFYKKLMFEQQKSILDEFKKDSSVFILGNTDRPDASAVYLHDFQRFLIHEQQEHWAQDLNKVRERMTKFIDDTMRETAEPFLFVDEFLTYLFSRENSIWDEKYDAVDMQDMNNPLSHYWISSSHNTYLTGDQLRSESSPEAYIRCLRMGCRCIELDCWDGPDGKPVIYHGWTRTTKIKFDDVVQAIKDHAFVTSSFPVILSIEEHCSVEQQRHMAKAFKEVFGDLLLTKPTEASADQLPSPSQLREKIIIKHKKLGPRGDVDVNMEDKKDEHKQQGELYMWDSIDQKWTRHYCAIADAKLSFSDDIEQTMEEEVPQDIPPTELHFGEKWFHKKVEKRTSAEKLLQEYCMETGGKDGTFLVRESETFPNDYTLSFWRSGRVQHCRIRSTMEGGTLKYYLTDNLTFSSIYALIQHYRETHLRCAEFELRLTDPVPNPNPHESKPWYYDSLSRGEAEDMLMRIPRDGAFLIRKREGSDSYAITFRARGKVKHCRINRDGRHFVLGTSAYFESLVELVSYYEKHSLYRKMRLRYPVTPELLERYNMERDINSLYDVSRMYVDPSEINPSMPQRTVKALYDYKAKRSDELSFCRGALIHNVSKEPGGWWKGDYGTRIQQYFPSNYVEDISTADFEELEKQIIEDNPLGSLCRGILDLNTYNVVKAPQGKNQKSFVFILEPKQQGDPPVEFATDRVEELFEWFQSIREITWKIDTKENNMKYWEKNQSIAIELSDLVVYCKPTSKTKDNLENPDFREIRSFVETKADSIIRQKPVDLLKYNQKGLTRVYPKGQRVDSSNYDPFRLWLCGSQMVALNFQTADKYMQMNHALFSLNGRTGYVLQPESMRTEKYDPMPPESQRKILMTLTVKVLGARHLPKLGRSIACPFVEVEICGAEYDNNKFKTTVVNDNGLSPIWAPTQEKVTFEIYDPNLAFLRFVVYEEDMFSDPNFLAHATYPIKAVKSGFRSVPLKNGYSEDIELASLLVFCEMRPVLESEEELYSSCRQLRRRQEELNNQLFLYDTHQNLRNANRDALVKEFSVNENQLQLYQEKCNKRLREKRVSNSKFYS
B4 returned an EGFR-L858R mean with EGFR-L858R of 2.43. The molecule further registered an EGFR-Wt mean with EGFR-Wt [1] of 3.99. Also, the Wt/L858R with EGFR-Wt [2] was determined as 1.64.

B5: LAT (protein, UniProt O43561 1-262, looked up)
Linker for activation of …: MEEAILVPCVLGLLLLPILAMLMALCVHCHRLPGSYDSTSSDSLYPRGIQFKRPHTVAPWPPAYPPVTSYPPLSQPDLLPIPRSPQPLGGSHRTPSSRRDSDGANSVASYENEGASGIRGAQAGWGVWGPSWTRLTPVSLPPEPACEDADEDEDDYHNPGYLVVLPDSTPATSTAAPSAPALSTPGIRDSAFSMESIDDYVNVPESGESAEASLDGSREYVNVSQELHPGAAKTEPAALSSQEAEEVEEEGAPDYENLQELN
For the molecule B5, the EGFR-L858R mean with EGFR-L858R is 18.39. Further, the EGFR-Wt mean with EGFR-Wt [1] is 29.54. In addition, the Wt/L858R in the test on EGFR-Wt [2] is listed as 1.61.

B6: CSK (protein, UniProt P41240 2-450, looked up)
Tyrosine-protein kinase CSK: SAIQAAWPSGTECIAKYNFHGTAEQDLPFCKGDVLTIVAVTKDPNWYKAKNKVGREGIIPANYVQKREGVKAGTKLSLMPWFHGKITREQAERLLYPPETGLFLVRESTNYPGDYTLCVSCDGKVEHYRIMYHASKLSIDEEVYFENLMQLVEHYTSDADGLCTRLIKPKVMEGTVAAQDEFYRSGWALNMKELKLLQTIGKGEFGDVMLGDYRGNKVAVKCIKNDATAQAFLAEASVMTQLRHSNLVQLLGVIVEEKGGLYIVTEYMAKGSLVDYLRSRGRSVLGGDCLLKFSLDVCEAMEYLEGNNFVHRDLAARNVLVSEDNVAKVSDFGLTKEASSTQDTGKLPVKWTAPEALREKKFSTKSDVWSFGILLWEIYSFGRVPYPRIPLKDVVPRVEKGYKMDAPDGCPPAVYEVMKNCWHLDAAMRPSFLQLREQLEHIKTHELHL
As for B6, in the test with EGFR-L858R, the EGFR-L858R mean turned out to be 5.86. The molecule further gave an EGFR-Wt mean with EGFR-Wt [1] of 8.40. Moreover, the Wt/L858R in the test on EGFR-Wt [2] turned out to be 1.43.

B7: CTNNA1 (protein, UniProt P35221 2-906, looked up)
Catenin alpha-1: TAVHAGNINFKWDPKSLEIRTLAVERLLEPLVTQVTTLVNTNSKGPSNKKRGRSKKAHVLAASVEQATENFLEKGDKIAKESQFLKEELVAAVEDVRKQGDLMKAAAGEFADDPCSSVKRGNMVRAARALLSAVTRLLILADMADVYKLLVQLKVVEDGILKLRNAGNEQDLGIQYKALKPEVDKLNIMAAKRQQELKDVGHRDQMAAARGILQKNVPILYTASQACLQHPDVAAYKANRDLIYKQLQQAVTGISNAAQATASDDASQHQGGGGGELAYALNNFDKQIIVDPLSFSEERFRPSLEERLESIISGAALMADSSCTRDDRRERIVAECNAVRQALQDLLSEYMGNAGRKERSDALNSAIDKMTKKTRDLRRQLRKAVMDHVSDSFLETNVPLLVLIEAAKNGNEKEVKEYAQVFREHANKLIEVANLACSISNNEEGVKLVRMSASQLEALCPQVINAALALAAKPQSKLAQENMDLFKEQWEKQVRVLTDAVDDITSIDDFLAVSENHILEDVNKCVIALQEKDVDGLDRTAGAIRGRAARVIHVVTSEMDNYEPGVYTEKVLEATKLLSNTVMPRFTEQVEAAVEALSSDPAQPMDENEFIDASRLVYDGIRDIRKAVLMIRTPEELDDSDFETEDFDVRSRTSVQTEDDQLIAGQSARAIMAQLPQEQKAKIAEQVASFQEEKSKLDAEVSKWDDSGNDIIVLAKQMCMIMMEMTDFTRGKGPLKNTSDVISAAKKIAEAGSRMDKLGRTIADHCPDSACKQDLLAYLQRIALYCHQLNICSKVKAEVQNLGGELVVSGVDSAMSLIQAAKNLMNAVVQTVKASYVASTKYQKSQGMASLNLPAVSWKMKAPEKKPLVKREKQDETQTKIKRASQKKHVNPVQALSEFKAMDSI
In the case of B7, the EGFR-L858R mean with EGFR-L858R is given as 1.34. This molecule displayed an EGFR-Wt mean with EGFR-Wt [1] of 2.11. In addition, the Wt/L858R in the test on EGFR-Wt [2] is 1.58.
